± gives the uncertainty stated by the source.
Assay: protein stability index of a GFP-peptide fusion (yeast GPS) (PSI 1-4); higher = more stable; sorted into four equal gates, so the index is relative within each strain
Conditions: pdr5∆
How it was run: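 Tiled 17-residue peptides from yeast proteins were fused downstream of GFP on a plasmid that also expresses Cherry, and the pooled library was carried in yeast. Mid-log cultures grown in leucine-free medium were sorted into four equal gates by GFP/Cherry fluorescence ratio. Plasmids from each gate were PCR-amplified and Illumina-sequenced, and reads were assigned to strains by barcodes. Each peptide's protein stability index is the sum, over gates, of the gate's read frequency multiplied by its gate number.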

Sequence	protein stability index
KLKQGQKLFVQVSNFAP [GAL11]	2.81 ± 0.057
KLLDDNPTEFDWPTYVD [SRB8]	3.29 ± 0.061
KLLFQELLSMNIAPRLR [RET1]	1.31 ± 0.049
KLLGIGDIESLFEQLQT [SRP54]	2.15 ± 0.069
KLNKKLQHLRSRCHLVT [SRP68]	3.34 ± 0.09
KLQKYGAAVRLTGSDRV [RPN7]	3.62 ± 0.27
KLRARLVEYGFDPSRIK [SMC2]	2.62 ± 0.092
KLREPVARFLHFNGIRR [ITC1]	2.05 ± 0.063
KLRRECSNPTCGAGVFL [RPS31]	2.44 ± 0.065
KLSCIQLNCIDTQFTKL [SRB8]	1.92 ± 0.062
KLSEIILNINNSTSKNT [SWI1]	2.92 ± 0.077
KLSIAEERDRRRAQQGL [RPS4A]	2.19 ± 0.069
KLSNIWMQRQLIKGDAG [SRB2]	1.16 ± 0.14
KLTRELEKKFQDRHVIF [RPS7A]	3.5 ± 0.18
KLYKKIAKFERSEEEVT [YIL149C/MLP2]	3.19 ± 0.078
KLYTFLARRTDAPFNKV [RPL18A]	1.65 ± 0.042
KMIEKIEKMSTIVQLCK [YIL149C/MLP2]	2.37 ± 0.067
KMSDGFNGADIRNCATE [RPT4]	3.47 ± 0.059
KMYDYEEKEESNLAATK [RPN11]	3.06 ± 0.082
KMYSDDTLKDISTSFCF [BRN1]	3.33 ± 0.067
KNAVVRSKFGGDFLDFQ [ARP7]	2.57 ± 0.12
KNFDMLNSMEKDRISHE [PCI8]	2.31 ± 0.076
KNGLYQEAFKIYQHLAS [SRP72]	2.14 ± 0.11
KNPKFSNAFYSVLRDTL [SMC4]	2.34 ± 0.11
KNRRRIHGELKTYKEGI [SMC1]	3.35 ± 0.062
KNTSSMDFLNSMENTPK [GAL11]	1.67 ± 0.06
KNVGNKSPEQCILRFLQ [SWI3]	2.67 ± 0.051

Sequence	protein stability index
KNVLANSIWGSSLRKNA [ITC1]	1.89 ± 0.05
KNWQNVGSLVVKSSMGP [RPL1A]	2.39 ± 0.051
KPAFSFGATTNDDKKTE [YJL041W/NSP1]	3.07 ± 0.067
KPFLKKTQEYYTQYTND [CDC53]	3.12 ± 0.053
KPGRMPFNFTVTLFQMA [CDC53]	1.99 ± 0.043
KPMAFSNTTTHVPEKKS [MTR3]	2.04 ± 0.052
KPPTQKTDTKVSFRTHN [SRP21]	2.82 ± 0.072
KPQEIKDILVKTGITKK [PRE9]	3.29 ± 0.086
KPQRTNTLRMKHGTYDK [RPB2]	2.85 ± 0.061
KPSSPPDVKSLVQLSTM [SIR4]	3.26 ± 0.07
KPYKQVKQIAPAELEGL [FAS2]	2.14 ± 0.055
KQEIMMSDLFTFDWFIK [ISW2]	2.6 ± 0.055
KQEQEEKIKSKKINRRN [YCG1]	2.87 ± 0.17
KQERLKENEESLTPTQS [PRP28]	3.4 ± 0.07
KQINHQGEEEELIALNL [RPB4]	3.59 ± 0.13
KQLQLAMHNSKAASSTR [POP1]	2.17 ± 0.071
KQNSSSDINQNDDSSSM [YDL088C/ASM4]	2.94 ± 0.08
KQRTKKEDKSEAIDGNG [SNF2]	3.36 ± 0.075
KQTADWLAEKFQKETNM [PRP28]	3.12 ± 0.14
KQTKLRKEKEKKPGKIA [SMB1]	3.36 ± 0.15
KRADISKRRITEELSIT [SMC1]	1.73 ± 0.078
KRDAKAAGSYYVEAQHK [RPL7A]	3.19 ± 0.046
KRINKFLDSVHKQGSSY [POP7]	2.52 ± 0.033
KRKLDIGKDTFVTRKSR [PRP8]	3.05 ± 0.057
KRLIAHDWLNALDGDLI [YCG1]	2.9 ± 0.16
KRLLYTRRFVNVTLVNG [RPS30A]	1.44 ± 0.04
KRRKTHIHKHVKDEAFD [RET1]	3.23 ± 0.12

Sequence	protein stability index
KRRVTNLEFNYTKPYPN [SMC2]	2.88 ± 0.14
KRVHTLLTLIVREYEQP [ISW2]	2.55 ± 0.15
KRVKSYMDKAKQYDNRI [LRP1]	2.89 ± 0.042
KRYANHTQDIIGGMRVD [RET1]	3.41 ± 0.075
KSAENIIKMTIPYAAKL [RET1]	2.48 ± 0.11
KSGKFCSHCGCVYVPNF [SNM1]	1.79 ± 0.055
KSIENPTQTKGNDAKPA [YLR335W/NUP2]	3.24 ± 0.058
KSIINSQRPGARILARS [ITC1]	2.18 ± 0.16
KSKFNKSNRSYSIALSN [GAL11]	2.47 ± 0.13
KSKILRKVVFPFQLDVA [UBP6]	2.39 ± 0.089
KSKLFEWKSEFVVPTFG [SNM1]	1.63 ± 0.067
KSKSSLDGKFSLFHTAV [RPN2]	2.8 ± 0.072
KSLDEQLLLLSDERAKL [LRP1]	3.2 ± 0.1
KSLESQRYVKSVKSVKF [RPC34]	1.61 ± 0.058
KSLVQYIELLPNADDIR [DIS3]	2.75 ± 0.077
KSMKYVKKILPLYARYI [ECM29]	1.19 ± 0.069
KSNGLAPEIPEDLYYLI [RPS13]	2.83 ± 0.13
KSNGSSDDDNIGQSEEL [ISW2]	3.44 ± 0.09
KSNRSYSIALSNVAAIF [GAL11]	1.67 ± 0.097
KSNTIPVTSIPSTNKKL [GAL11]	2.87 ± 0.073
KSPPQFFYNISSIHWNN [SIN4]	1.89 ± 0.039
KSRGSDLQYLGEFSGKN [RRP6]	3.34 ± 0.11
KSRPDRPKPVSPPCYII [SNF5]	3.08 ± 0.057
KSSLSLRDHALSLTAFT [ITC1]	2.14 ± 0.036
KTAKEVAGAIRAGIIIA [RPS2]	3.16 ± 0.17
KTCAEVIGGNSLFHIVV [SMC3]	3.1 ± 0.1
KTDEVIILGTNLYDGAE [BRR2]	3.12 ± 0.055

Sequence	protein stability index
KTDFAKIINKPNELSQI [RPC82]	3.13 ± 0.12
KTFNKIQSQVFESLYNS [BRR2]	2.04 ± 0.064
KTGTKPAAVFTETLKHD [RPL4A]	2.19 ± 0.17
KTKAMSLSIEENIPVAL [POP1]	3.01 ± 0.099
KTMIKTIEKDKMKIQET [SMC2]	1.86 ± 0.14
KTPLLKQYLSASFSLKN [RPL6A]	1.98 ± 0.054
KTSSQTSLSSKDLSNYR [YMR153W/NUP53]	2.54 ± 0.06
KTVDSSIQPIESNIKMT [SSN2]	2.72 ± 0.1
KVAHTSYKRIYGEYPPT [PRE8]	3.14 ± 0.068
KVCECVCMHCGKLLLDE [RPO21]	2.97 ± 0.073
KVDINADSAVNRQTLMF [PRP28]	3.32 ± 0.072
KVKHDSQPFIKFLNFRP [SSN2]	2.6 ± 0.063
KVLGVKDMSPILGELKR [LRP1]	3.14 ± 0.068
KVLRKFRVQSQSNYGIY [NUT1]	2.29 ± 0.071
KVRLNASEREELALIEE [PRP8]	2.89 ± 0.14
KVVYIQRRSWRQYVGQL [DIS3]	3.51 ± 0.17
KVYAQLLESYKTLSLKS [RPN7]	2.56 ± 0.085
KWDDLNEQLTLLSKKHG [RPN5]	2.92 ± 0.083
KWDNQSASRAKNMPVIY [RGR1]	2.41 ± 0.12
KYACLAIRKNGQIDFWY [SIN4]	2.16 ± 0.077
KYFTELSHYIRQCFQDN [MED1]	2.35 ± 0.06
KYISAELYAQLRENGLV [SNU114]	2.99 ± 0.12
KYNAFIASEVLIKQVPR [RPL1A]	1.57 ± 0.06
KYNVNISALTQTEIKDI [PRP8]	2.57 ± 0.083
